{"source": "patent US20160052997A1", "target": "HA of A/CA/04/09 (H1N1) virus (Influenza A virus A/CA/04/09 (H1N1))", "assay": "cell-based or functional assay", "data": [{"substance": "CT-P27", "values": [{"measurement": "EC50, microneutralization test", "result": 0.62, "unit": "µg/mL"}]}]}
